Reference: PMC7948974, “Heme oxygenase-1 affects cytochrome P450 function through the formation of heteromeric complexes: Interactions between CYP1A2 and heme oxygenase-1” (The Journal of Biological Chemistry, 2020)

Molecular target: T1, GFP-HO-1 (heme oxygenase 1 with an N-terminal GFP2 tag) (human, UniProt P09601 1-288)
T1 sequence (looked up): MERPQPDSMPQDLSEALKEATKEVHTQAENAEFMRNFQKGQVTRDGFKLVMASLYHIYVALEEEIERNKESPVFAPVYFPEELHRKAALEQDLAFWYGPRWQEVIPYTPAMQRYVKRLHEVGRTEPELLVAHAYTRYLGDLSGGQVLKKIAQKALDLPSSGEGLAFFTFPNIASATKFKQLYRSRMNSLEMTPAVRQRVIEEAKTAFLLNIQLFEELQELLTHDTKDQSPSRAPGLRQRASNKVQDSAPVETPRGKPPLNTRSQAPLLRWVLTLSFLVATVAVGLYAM
Assay: cell-based or functional assay

B1: POR-Rluc (NADPH-cytochrome P450 reductase with a C-terminal Rluc tag) (enzyme, human, UniProt P16435 1-677, looked up)
chain: MGDSHVDTSSTVSEAVAEEVSLFSMTDMILFSLIVGLLTYWFLFRKKKEEVPEFTKIQTLTSSVRESSFVEKMKKTGRNIIVFYGSQTGTAEEFANRLSKDAHRYGMRGMSADPEEYDLADLSSLPEIDNALVVFCMATYGEGDPTDNAQDFYDWLQETDVDLSGVKFAVFGLGNKTYEHFNAMGKYVDKRLEQLGAQRIFELGLGDDDGNLEEDFITWREQFWPAVCEHFGVEATGEESSIRQYELVVHTDIDAAKVYMGEMGRLKSYENQKPPFDAKNPFLAAVTTNRKLNQGTERHLMHLELDISDSKIRYESGDHVAVYPANDSALVNQLGKILGADLDVVMSLNNLDEESNKKHPFPCPTSYRTALTYYLDITNPPRTNVLYELAQYASEPSEQELLRKMASSSGEGKELYLSWVVEARRHILAILQDCPSLRPPIDHLCELLPRLQARYYSIASSSKVHPNSVHICAVVVEYETKAGRINKGVATNWLRAKEPAGENGGRALVPMFVRKSQFRLPFKATTPVIMVGPGTGVAPFIGFIQERAWLRQQGKEVGETLLYYGCRRSDEDYLYREELAQFHRDGALTQLNVAFSREQSHKVYVQHLLKQDREHLWKLIEGGAHIYVCGDARNMARDVQNTFYDIVAELGAMEHAQAVDYIKKLMTKGRYSLDVWS
  apparent Km^POR•HO-1 from HO-1-mediated heme degradation against POR concentration 0.025-0.5 μM; purified recombinant HO-1 (0.1 μM) and POR in DLPC, in the presence of 0.1 μM CYP1A2: 0.024 µM
